Key:
[1] = target: T1, murine norovirus particle (capsid of 180 VP1) (Murine norovirus 1 (MNV-1, clone CW-1)) (UniProt B7XA03); assay: electrochemical aptasensor (SWV); conditions: thiol (end not stated in material); GSB: 50 mM NaCl, 20 mM Tris-HCl pH 7.4, 3 mM MgCl2, 5 mM KCl, room temperature (anisotropy ~1 h; filter 24 h); aptasensor: Dulbecco's PBS, 25 C, 1 h
T1 sequence: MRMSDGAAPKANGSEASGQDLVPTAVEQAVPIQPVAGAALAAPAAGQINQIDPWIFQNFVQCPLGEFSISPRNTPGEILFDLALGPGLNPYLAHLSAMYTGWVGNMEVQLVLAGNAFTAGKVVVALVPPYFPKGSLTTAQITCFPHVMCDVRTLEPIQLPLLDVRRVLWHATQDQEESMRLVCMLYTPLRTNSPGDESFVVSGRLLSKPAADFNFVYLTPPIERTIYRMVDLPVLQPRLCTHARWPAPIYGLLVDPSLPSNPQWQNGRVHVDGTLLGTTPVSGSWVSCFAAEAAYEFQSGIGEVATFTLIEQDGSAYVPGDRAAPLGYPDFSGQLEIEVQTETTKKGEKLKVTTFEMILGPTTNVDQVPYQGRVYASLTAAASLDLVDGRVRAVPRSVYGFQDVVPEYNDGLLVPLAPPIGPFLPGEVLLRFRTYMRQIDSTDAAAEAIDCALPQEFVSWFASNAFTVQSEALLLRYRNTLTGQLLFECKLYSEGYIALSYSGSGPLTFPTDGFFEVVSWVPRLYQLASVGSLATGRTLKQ

[2] = target: T1, murine norovirus particle (capsid of 180 VP1) (Murine norovirus 1 (MNV-1, clone CW-1)); assay: filter binding (polycarbonate)

Sequence | binding signal (% of current decrease (110.6 to 34.6 uA)) [1] | K half [2] [pM]
GCTAGCGAATTCCGTACGAAGGGCGAATTCCACATTGGGCTGCAGCCCGGGGGATCC [thiolated AG3 (aptasensor)] | 100 | –
GCTAGCGAATTCCGTACGAAGGGCGAATTCCACATTGGGCTGCAGCCCGGGGGATCC [AG3] | – | 0.1

From paper PMC3828344
